According to the supplement of paper PMC11246515:
± gives the standard deviation of the averaged measurements.

Assay: total protein half-life in vivo (active degradation + dilution); higher = more stable protein
[1] = E. coli NCM3722 delta-clpP delta-lon delta-hslV, growth: N-lim chemostat, doubling time 6 h
[2] = E. coli NCM3722 delta-clpP, growth: N-lim chemostat, doubling time 6 h
[3] = E. coli NCM3722 delta-hslV, growth: N-lim chemostat, doubling time 6 h
[4] = E. coli NCM3722 delta-lon, growth: N-lim chemostat, doubling time 6 h
[5] = E. coli NCM3722 delta-smpB, growth: N-lim chemostat, doubling time 6 h
[6] = wild type E. coli NCM3722, growth: C-lim chemostat, doubling time 3 h
[7] = wild type E. coli NCM3722, growth: C-lim chemostat, doubling time 6 h
[8] = wild type E. coli NCM3722, growth: C-lim chemostat, doubling time 12 h
[9] = wild type E. coli NCM3722, growth: N-lim chemostat, doubling time 6 h
[10] = wild type E. coli NCM3722, growth: N-lim chemostat, doubling time 12 h
[11] = wild type E. coli NCM3722, growth: P-lim chemostat, doubling time 6 h
[12] = wild type E. coli NCM3722, growth: P-lim chemostat, doubling time 12 h

| Sequence | total protein half-life in vivo [1] | total protein half-life in vivo [2] | total protein half-life in vivo [3] | total protein half-life in vivo [4] | total protein half-life in vivo [5] | total protein half-life in vivo [6] | total protein half-life in vivo [7] | total protein half-life in vivo [8] | total protein half-life in vivo [9] | total protein half-life in vivo [10] | total protein half-life in vivo [11] | total protein half-life in vivo [12] |
| --- | --- | --- | --- | --- | --- | --- | --- | --- | --- | --- | --- | --- |
| MSQPLLSVNGLMMRFGGLLAVNNVNLELYPQEIVSLIGPNGAGKTTVFNCLTGFYKPTGGTILLRDQHLEGLPGQQIARMGVVRTFQHVRLFREMTVIENLLVAQHQQLKTGLFSGLLKTPSFRRAQSEALDRAATWLERIGLLEHANRQASNLAYGDQRRLEIARCMVTQPEILMLDEPAAGLNPKETKELDELIAELRNHHNTTILLIEHDMKLVMGISDRIYVVNQGTPLANGTPEQIRNNPDVIRAYLGEA [P0A9S7] | 6.52 ± 0.66 h | 6.12 ± 0.48 h | 6.06 ± 0.53 h | 6.07 ± 0.61 h | 5.74 ± 0.43 h | 3.12 ± 0.036 h | 6.18 ± 0.31 h | 11.99 ± 0.11 h | 6.06 ± 0.2 h | 12.3 ± 0.36 h | 6.12 ± 0.34 h | 12.9 ± 0.69 h |
| MENYLIDNLDRGILEALMGNARTAYAELAKQFGVSPGTIHVRVEKMKQAGIITGARIDVSPKQLGYDVGCFIGIILKSAKDYPSALAKLESLDEVTEAYYTTGHYSIFIKVMCRSIDALQHVLINKIQTIDEIQSTETLIVLQNPIMRTIKP [P0ACI6] | – | 5.95 h | 6.24 ± 1.1 h | 5.77 ± 0.21 h | 5.72 ± 0.49 h | 3.51 ± 0.15 h | 6.232 ± 0.029 h | 11.4 h | 5.85 ± 0.57 h | 11.6 ± 0.12 h | 6.94 ± 0.64 h | 13.2 ± 0.17 h |
| MSFMVSEEVTVKEGGPRMIVTGYSSGMVECRWYDGYGVKREAFHETELVPGEGSRSAEEV | 5.18 h | 0.609 ± 0.66 h | – | – | – | 0.36 h | 0.469 h | – | – | – | – | – |
| MTHFSQQDNFSVAARVLGALFYYAPESAEAAPLVAVLTSDGWETQWPLPEASLAPLVTAFQTQCEETHAQAWQRLFVGPWALPSPPWGSVWLDRESVLFGDSTLALRQWMREKGIQFEMKQNEPEDHFGSLLLMAAWLAENGRQTECEELLAWHLFPWSTRFLDVFIEKAEHPFYRALGELARLTLAQWQSQLLIPVAVKPLFR | 3.98 ± 0.19 h | 4.54 ± 1.1 h | 4.18 ± 0.73 h | 5.74 ± 1.5 h | 4.5 ± 0.51 h | 3 ± 0.17 h | 5.45 h | 11.7 ± 1.3 h | 4.4 ± 0.41 h | 7.72 ± 1.9 h | 5.41 ± 0.39 h | 11.3 ± 0.19 h |
| MSDERYQQRQQRVKEKVDARVAQAQDERGIIIVFTGNGKGKTTAAFGTATRAVGHGKKVGVVQFIKGTWPNGERNLLEPHGVEFQVMATGFTWDTQNRESDTAACREVWQHAKRMLADSSLDMVLLDELTYMVAYDYLPLEEVVQALNERPHQQTVIITGRGCHRDILELADTVSELRPVKHAFDAGVKAQIGIDY [P0A9H5] | 4.8 ± 0.41 h | 4.52 ± 0.17 h | 4.27 ± 0.56 h | 5.29 ± 1.2 h | 4.17 ± 0.17 h | 3.41 ± 0.32 h | 5.05 ± 0.13 h | 9.56 ± 0.6 h | 4.235 ± 0.024 h | 6.63 ± 0.33 h | 5.852 ± 0.021 h | 11 ± 0.43 h |
| MSEVEFSHEYWMRHALTLAKRAWDEREVPVGAVLVHNNRVIGEGWNRPIGRHDPTAHAEIMALRQGGLVMQNYRLIDATLYVTLEPCVMCAGAMIHSRIGRVVFGARDAKTGAAGSLMDVLHHPGMNHRVEITEGILADECAALLSDFFRMRRQEIKAQKKAQSSTD | 5.35 ± 0.49 h | – | > 8 h | 4.63 h | – | – | – | – | – | – | > 8 h | 10.7 ± 0.33 h |
| MRYDKELTENEMIRQKILQQLLEWIECNLEHPISIEDIAQKSGYSRRNIQLLFRNFMHVPLGEYIRKRRLCRAAILVRLTAKSMLDIALSLHFDSQQSFSREFKKLFGCSPREYRHRDYWDLANIFPSFLIRQQQKTECRLINFPETPIFGNSFKYDIEVSNKSPDEEVKLRRHHLARCMKNFKTDIYFVSTFEPSTKSVDLLTVETFAGTVCEYADMPKEWTTTRGLYDPTHVIWTQA | > 8 h | – | – | – | – | – | – | – | – | – | – | – |
| MSLNLVSEQLLAANGLKHQDLFAILGQLAERRLDYGDLYFQSSYHESWVLEDRIIKDGSYNIDQGVGVRAISGEKTGFAYADQISLLALEQSAQAARTIVRDSGDGKVQTLGAVEHSPLYTSVDPLQSMSREEKLDILRRVDKVAREADKRVQEVTASLSGVYELILVAATDGTLAADVRPLVRLSVSVLVEEDGKRERGASGGGGRFGYEFFLADLDGEVRADAWAKEAVRMALVNLSAVAAPAGTMPVVLGAGWPGVLLHEAVGHGLEGDFNRRGTSVFSGQVGELVASELCTVVDDGTMVDRRGSVAIDDEGTPGQYNVLIENGILKGYMQDKLNARLMGMTPTGNGRRESYAHLPMPRMTNTYMLPGKSTPQEIIESVEYGIYAPNFGGGQVDITSGKFVFSTSEAYLIENGKVTKPVKGATLIGSGIETMQQISMVGNDLKLDNGVGVCGKEGQSLPVGVGQPTLKVDNLTVGGTA [P0AGG8] | 5.22 ± 1.1 h | 3.75 ± 0.12 h | 3.805 ± 0.0063 h | 4.52 ± 0.13 h | 3.73 ± 0.064 h | 2.74 ± 0.14 h | 5.14 ± 0.45 h | 8.1 ± 0.85 h | 3.88 ± 0.13 h | 6.45 ± 0.19 h | 5.11 ± 0.16 h | 11 ± 1.7 h |
